Here are results for ten sequences from the Immune Epitope Database (IEDB).

Some results are limits rather than exact numbers.

A word on the Kd: it is the concentration at which binding is half-saturated. One may read the IC50 as the concentration that gives 50% inhibition. The low end stands for inhibition by little substance, the high end for a need for much substance.

Test [1] deals with HLA-A*01:01. Kind of test: IEDB peptide-MHC binding, purified MHC/competitive/fluorescence; filed as Kd, often an IC50 or EC50 that approximates it; ≥ and ≤ were set here for values at or beyond the usual limits of such assays.
Test [2] addresses HLA-A*29:02. Described as above. To be noted: source organism: Measles morbillivirus.
In test [3] the target is HLA-A*01:01. Kind of test: IEDB peptide-MHC binding, purified MHC/competitive/fluorescence; ≥ and ≤ were set here for values at or beyond the usual limits of such assays.
The target of test [4] is HLA-B*15:01. The test is described as above.
Test [5] addresses HLA-A*01:01. Put plainly: IEDB peptide-MHC binding, purified MHC/direct/fluorescence; filed as Kd, often an IC50 or EC50 that approximates it; ≥ and ≤ were set here for values at or beyond the usual limits of such assays.
For another test, the target named is HLA-A*02:11. The description is as above. To be noted: source organism: Zaire ebolavirus.
Another test has as its target HLA-A*02:12. The test is described as above. To be noted: source organism: Zaire ebolavirus.
The next test has as its target HLA-A*02:19. Described as above. To be noted: source organism: Zaire ebolavirus.
Test [6] deals with HLA-A*03:01. The description is as above.
The target in test [7] is HLA-A*29:02. The description is as above.
For a further test, the target named is HLA-A*68:02. The test is described as above. To be noted: source organism: Zaire ebolavirus.
The target of test [8] is HLA-A*02:01. Kind of test: IEDB peptide-MHC binding, purified MHC/competitive/fluorescence; filed as Kd, often an IC50 or EC50 that approximates it; ≥ and ≤ were set here for values at or beyond the usual limits of such assays. To be noted: source organism: Zaire ebolavirus.
In a further test the target is HLA-A*26:01. The test is described as above. To be noted: source organism: Zaire ebolavirus.
The target of test [9] is HLA-A*69:01. Described as above. To be noted: source organism: Zaire ebolavirus.
In the next test the target is HLA-B*15:17. The test is described as above. To be noted: source organism: Zaire ebolavirus.
For test [10], the target named is HLA-B*18:01. The test is described as above. To be noted: source organism: Zaire ebolavirus.
Another test concerns the target HLA-B*27:03. The description is as above. To be noted: source organism: Zaire ebolavirus.
The target in the next test is HLA-B*39:01. The test is described as above.
Test [11] deals with HLA-B*46:01. The test is described as above. To be noted: source organism: Zaire ebolavirus.
Test [12] deals with HLA-B*51:01. Described as above. To be noted: source organism: Zaire ebolavirus.
For test [13], the target named is HLA-B*57:01. Described as above. To be noted: source organism: Zaire ebolavirus.
Test [14] has as its target HLA-A*02:01. Kind of test: IEDB peptide-MHC binding, purified MHC/competitive/fluorescence; ≥ and ≤ were set here for values at or beyond the usual limits of such assays.
The target in a further test is HLA-A*24:02. The test is described as above. To be noted: source organism: Zaire ebolavirus.
Test [15] deals with HLA-A*11:01. Kind of test: IEDB peptide-MHC binding, purified MHC/direct/fluorescence; filed as Kd, often an IC50 or EC50 that approximates it; ≥ and ≤ were set here for values at or beyond the usual limits of such assays. To be noted: source organism: Camelpox virus CMS.
A further test deals with HLA-A*30:01. The test is described as above. To be noted: source organism: Camelpox virus CMS.
A further test deals with HLA-A*31:01. The test is described as above.
The next test concerns the target HLA-C*07:02. The description is as above.
Test [16] addresses HLA-A*02:01. The description is as above. To be noted: source organism: Mammarenavirus juninense.
Test [17] has as its target HLA-A*69:01. The test is described as above. To be noted: source organism: Mammarenavirus juninense.
Test [18] deals with HLA-B*15:01. Described as above.
Test [19] deals with HLA-B*18:01. Described as above. To be noted: source organism: Mammarenavirus juninense.
A further test addresses HLA-B*44:02. The test is described as above. To be noted: source organism: Mammarenavirus juninense.
For test [20], the target named is HLA-B*46:01. The description is as above. To be noted: source organism: Mammarenavirus juninense.
The target of a further test is HLA-B*48:01. The description is as above. To be noted: source organism: Mammarenavirus juninense.
In test [21] the target is HLA-B*57:01. The test is described as above. To be noted: source organism: Mammarenavirus juninense.
A further test concerns the target HLA-B*58:01. Described as above. To be noted: source organism: Mammarenavirus juninense.
In test [22] the target is HLA-A*03:01. Put plainly: IEDB peptide-MHC binding, purified MHC/competitive/fluorescence; ≥ and ≤ were set here for values at or beyond the usual limits of such assays.
The target in test [23] is HLA-A*11:01. The test is described as above.
For test [24], the target named is HLA-B*07:02. The test is described as above. To be noted: source organism: Vaccinia virus.
For test [25], the target named is HLA-B*07:02. Kind of test: IEDB peptide-MHC binding, purified MHC/direct/fluorescence; filed as Kd, often an IC50 or EC50 that approximates it; ≥ and ≤ were set here for values at or beyond the usual limits of such assays. To be noted: source organism: SARS-CoV1.
Another test has as its target HLA-B*08:01. The description is as above. To be noted: source organism: SARS-CoV1.
A further test has as its target HLA-B*35:01. Kind of test: IEDB peptide-MHC binding, purified MHC/competitive/radioactivity; filed as Kd, often an IC50 or EC50 that approximates it; ≥ and ≤ were set here for values at or beyond the usual limits of such assays. To be noted: source organism: SARS coronavirus Tor2.
For test [26], the target named is HLA-B*51:01. The description is as above. To be noted: source organism: SARS coronavirus Tor2.
In another test the target is HLA-B*53:01. The description is as above. To be noted: source organism: SARS coronavirus Tor2.
In a further test the target is HLA-B*54:01. The test is described as above. To be noted: source organism: SARS coronavirus Tor2.
Where [27] appears, read: source organism: Zaire ebolavirus.
Where [28] appears, read: source organism: Sudan ebolavirus.
[29] abbreviates: source organism: Camelpox virus CMS.
[30] abbreviates: source organism: Mammarenavirus juninense.
Setting [31] is: source organism: Vaccinia virus.

With SFSYFYPFR, the Kd with HLA-A*01:01 [1] (source organism: Measles morbillivirus) was no less than 20 µM; in the test with HLA-A*29:02 [2] it was 0.458 µM.

For the sequence NSTHNTPVY, the figures for the half-maximal inhibitory concentration (IC50) with HLA-A*01:01 [3] (setting [27]) and with HLA-B*15:01 [4] (setting [27]) were 29.1 µM and no less than 119 µM, respectively. In addition, the Kd with HLA-A*01:01 [5] (source organism: Ebola virus - Eckron (Zaire, 1976)) is no less than 20 µM; in the test with HLA-A*02:11 it was no less than 20 µM; with HLA-A*02:12, no less than 20 µM; with HLA-A*02:19, no less than 20 µM; in the test with HLA-A*03:01 [6] (setting [27]) it was no less than 20 µM; with HLA-A*29:02 [7] (setting [27]), no less than 20 µM. In addition, the Kd with HLA-A*68:02, with HLA-A*02:01 [8], with HLA-A*26:01, in the test with HLA-A*69:01 [9], with HLA-B*15:17 and in the test with HLA-B*18:01 [10] was no less than 20 µM in each case. The Kd with HLA-B*27:03, with HLA-B*39:01 (setting [27]), with HLA-B*46:01 [11], in the test with HLA-B*51:01 [12] and with HLA-B*57:01 [13] was no less than 20 µM each time.

Consider VSYEAGEWA, for which the 50% inhibitory concentration (IC50) with HLA-A*01:01 [3] (setting [28]) was determined as 50.3 µM; in the test with HLA-A*02:01 [14] (setting [28]), 15 µM.

On to GTNETEYLF, for which the results for the half-inhibitory concentration (IC50) with HLA-A*01:01 [3] (setting [27]), with HLA-A*02:01 [14] (setting [27]) and in the test with HLA-A*24:02 were no less than 373 µM, 20.9 µM and 8.71 µM, respectively.

Take HYRPYHYYH: the Kd with HLA-A*03:01 [6] (setting [29]) was no less than 20 µM; with HLA-A*11:01 [15] it was no less than 20 µM; in the test with HLA-A*30:01, 0.023 µM; with HLA-A*31:01 (setting [29]), 0.0032 µM; with HLA-C*07:02 (setting [29]), 0.013 µM.

FRRVAHSSL: the Kd with HLA-A*01:01 [5] (setting [30]), with HLA-A*02:01 [16], with HLA-A*03:01 [6] (setting [30]), with HLA-A*29:02 [7] (setting [30]), in the test with HLA-A*31:01 (setting [30]) and with HLA-A*69:01 [17] was no less than 20 µM in each case. In addition, the Kd with HLA-B*15:01 [18] (setting [30]), with HLA-B*18:01 [19], with HLA-B*44:02, with HLA-B*46:01 [20], in the test with HLA-B*48:01 and with HLA-B*57:01 [21] was no less than 20 µM each time. Further, the Kd with HLA-B*58:01 was no less than 20 µM; in the test with HLA-C*07:02 (setting [30]), 0.053 µM; with HLA-B*39:01 (setting [30]), 0.377 µM.

With GSYGEYQSY, the IC50 is 9.91 µM in the test with HLA-A*01:01 [3] (setting [27]); no less than 154 µM in the test with HLA-A*02:01 [14] (setting [27]); 26.1 µM with HLA-A*03:01 [22] (setting [27]); 1.29 µM with HLA-A*11:01 [23] (setting [27]); 3.51 µM in the test with HLA-B*15:01 [4] (setting [27]).

Regarding WAMEKSSKY, the IC50 with HLA-A*01:01 [3] (setting [31]) was 36.8 µM; with HLA-A*02:01 [14] (setting [31]), no less than 122 µM; with HLA-A*03:01 [22] (setting [31]), no less than 265 µM; in the test with HLA-A*11:01 [23] (setting [31]) it was no less than 130 µM; with HLA-B*07:02 [24] it was no less than 624 µM; with HLA-B*15:01 [4] (setting [31]), 9.18 µM.

On to FPREGVFVF, for which the Kd with HLA-B*07:02 [25] amounted to 0.131 µM; with HLA-B*08:01 it was 0.116 µM; in the test with HLA-B*15:01 [18] (source organism: SARS-CoV1), 2.14 µM; with HLA-C*07:02 (source organism: SARS-CoV1), 0.51 µM; with HLA-B*35:01, 0.000684 µM; in the test with HLA-B*51:01 [26] it was 0.0314 µM. For the same sequence, the Kd with HLA-B*53:01 worked out at 0.00536 µM; in the test with HLA-B*54:01 it was 0.0925 µM.

Take HSDTAKAFA: the equilibrium dissociation constant (Kd) in the test with HLA-A*01:01 [1] (source organism: Escherichia coli) was no less than 20 µM.
